Residue numbers refer to the chain shown, from its start. Like-named read-outs stand apart in the source and are kept apart here.
Tests used:
[1] = biological target: T1, SARS-CoV-2 RBD (Biotinylated SARS-CoV-2 RBD, Acrobio 시스템) (SARS-CoV-2, UniProt P0DTC2 319-537)
SARS-CoV-1 RBD = SARS-CoV-1 RBD (SARS-CoV-1, UniProt P59594 306-527); experiment: binding measurement of Fig. 20; method not given
[2] = biological target: T1, SARS-CoV-2 RBD (Biotinylated SARS-CoV-2 …); experiment: BLI; IgG1 made in CHO cells

B1: D27 항체 (designed full-length antibody D27) (antibody, V domains shown)
VH: QVQLQQSGAEVKKPGSSVKVSCKASGGTFGNWSISWVRQAPGQGLEWMGGIDPSRGEATYAQKFQGRVTITTDESTSTAYMELSSLRSEDTAVYYCARETEQGGMDVWGQGTTVTVSS
VL: SYELTQPPSVSVAPGKTARITCGGNNIGRKSVHWYQQKPGQAPVLVVYDDSDRPSGIPERFSGSNSGNTATLTISRVEAGDEADYYCQVYDLFSDYVFGTGTKVEIK
Kd [1]: 175 nM

B2: D27LEY (IgG1 형태) (antibody, V domains shown)
VH: QVQLQQSGAEVKKPGSSVKVSCKASGGTFGNWSISWVRQAPGQGLEWMGGIAPGRGEATYAQKFQGRVTITTDESTSTAYMELSSLRSEDTAVYYCARETWYTSGGMDVWGQGTTVTVSS
VL: SYELTQPPSVSVAPGKTARITCGGNNIGRKSVHWYQQKPGQAPVLVVYDDSDRPSGIPERFSGSNSGNTATLTISRVEAGDEADYYCQVYDLWSSDYVFGTGTKVTVL
Kd (SARS-CoV-1 RBD): < 0.001 nM

B3: D27LE (IgG1 형태) (antibody, V domains shown)
VH: B2 VH with A52D, G54S
VL: B2 VL
Kd [2]: 7.1 nM

From KR20220090395A (dated 2022)
